Experiment: soluble fraction after stress (log2 fold change); higher = more stays soluble; pooled small domains, quantitative proteomics
Conditions: stress: 50 degC
Procedure, shortened: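 Each library was heated to 50°C as a stress step. The libraries, made up of small protein domains, were pooled and analysed at high throughput by quantitative proteomics. The reported value is the base-two logarithm of the fold change in each protein's soluble amount after stress, taken as a measure of aggregation propensity. The higher the value, the more protein stays in solution.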

Compared with “HMDPLGALSDRERQVLALIGQGHGLQAIADQLGVSYKTAANTSSALKKKLGVDGINGLMKFALDSG”, “HMKAKPTLLTPYEERLKGWLETDSRRPKRDRRTGLALFAKLQQEGFTGSYTRVTEYIRRWRDSGG” is lower in “soluble fraction (log2)” value: -0.505 for the first, -3.01 for the second.

“HMRIETLESLANRLAYKAYRTGRKVELEPMNPFERRVIHTALQNSKYATTESEGEDMNRHIVIVPKEGG” and “HMWQPIKLDRGDWQNSLQVGDRVFVRGIPRPVEILSAVDEENNIEVLMGTMRAKIPVYQLDKPAENFIDTT” are within 0.2 log units of each other in “soluble fraction (log2)” value: -0.0606 for the first, -0.15 for the second.

First: HMDYKLDVNFPEMYLEQIPAEKRAALIQILEQDPRPSYQKDPVRIYGMSYAGMEIHFRVDKETLYVTEVER
Second: HMFDSYDIYDEAGNTVNTVKGKLSWGHLLEIYDRFDNHIGTVQERVLTFLPKFLMYINGQEIGEIR
The “soluble fraction (log2)” value of the first is lower: -0.996 for the first, -0.0596 for the second.

Compared with “HMLSAGTTEQRLAMLQYQWEKQSETYSALGPNNGVVTLGQIRNTMAKIAELAGFKDAAQFWMPVPMDYDV”, “HMNLMQIHVARPPNQLGVFSQEEVAAGLQSGRFLPTDQAWRDGMSAWTPLSQWAEFSSVVAAV” is higher in “soluble fraction (log2)” value: -0.323 for the first, 0.083 for the second.

“HMLKLEEIQPNATVRGILPDALITVVNVKWFGSEALELTYKDTSGRVANQLLFRDDQPRLEIVE” and “HMGDHYTALGLSIDATPEEIRSAYFLAARRSHPDANPDAQTTEWFLRVQEAYDILSNPRRRAEYDASLP” are within 0.2 log units of each other in “soluble fraction (log2)” value: -0.538 for the first, -0.554 for the second.

First: HMTIKLFPNPSTDFIRVSELSAKENYKIYTILGSEIKRGSVSNNETIDIRNLNSGVYLLKFDNGTTKKIVK
Second: HMGELTSILVATKQIEPGETLSSSNTQVKSWISDLIPEGAITNPESVMGRTVSSVIGVGMPVVSLHLR
The “soluble fraction (log2)” value of the first is lower: -0.886 for the first, 0.0954 for the second.

Compared with “HMDFNNQLKRIRESNGLTQEQLAKILNVSRQSISSWEVGRNFPDLEMIVIISKEFNISLDQLIMG”, “HMAENPAYTKGVVNRLYKIRATPYYSYSYNVDQKTYEGRGKQYGEYENLHIGDTITVYYQRSNPSNSEA” is higher in “soluble fraction (log2)” value: -2.82 for the first, -0.414 for the second.

Going from “HMKDYTIDDIINSKVEHPLGGYQSRFKVGEYEVSVVGGRQTNHGDFIHTFELAIFDKNNNFLRNLTPVTID” to “HMVKTIINGEEKDFDAQDFQTFGDFLKKVIPEGQILKSLKINSKDVPIAFIDELKSATVDENITIEMELA”, the “soluble fraction (log2)” value rises from -0.0394 to 0.429.

“HMKTQFGTIVKQLRERKGMDQKQLGEIVGVSDKTVSSWEINRTEPKMGIVQQLADYFGVSTDYLIKG” and “HMKLSNELLNAIMLIKKGIRNPTSLAQRLNTDTQYAKNLLEHLKMTGLINEHSRLTSRGLDIFHQK” are within 0.2 log units of each other in “soluble fraction (log2)” value: 0.295 for the first, 0.163 for the second.

Going from “HMLPVDALFAQHPALIVTLGQTEKLKHGAAIRDWHFADGTYRVYSETGEFLLLGTVKGQILTTVKSFFE” to “HMRREKVLIKLAENLASKVLRTKKSIELEPMTPYERKVIHTTIENISGVKSWSEGENLQRHLIVALDE”, the “soluble fraction (log2)” value rises from -2.08 to -1.3.

Compared with “HMALALSGVDLNRNRLTISWQTSKGVSYRVQRSSDLQSWTDVGAERLGNGNRLSHTQALNTESAFLRVII”, “HMGRTKEEIFNILKERIVTLQYEPGKILNEIELSEEFEVSRTPIRTVFQQLEAVKLVSIVPRYGVQVA” is lower in “soluble fraction (log2)” value: -0.0897 for the first, -1.27 for the second.

Going from “HMNSKSDDELLSKTTSLLIHAAKIDENYTDKEKEIIKKTLIQLGVKESKADQIMLTAEINEE” to “HMIRDVDYNTFVSMVQEGKVGQVEIQEQNNRILFTDKDERTVYKTAMVPDSDLISRLLEAGVSTS”, the “soluble fraction (log2)” value falls from no less than 0.62 to 0.204.

“HMAIGTDPETGISVVADGTDFIWTRSGATSTIFLRLDSENSYILNVKQGDFEVIDYELGEGQENAINIDQS” and “HMGSTDTLEDALEAAEKISYPVIIKATAGGGGRGMKVASSLEELKKVYHTTKLEAKNAFGNDQVYIEKYL” are within 0.2 log units of each other in “soluble fraction (log2)” value: -0.0311 for the first, 0.116 for the second.

First: HMRSREGVRWIIRERIMEELQERHHMDDGELLEMIDRSIGEMGQEIFLPLKERIWLRGSLFDSFR
Second: HMEEILLSVKADGTYWVDQKEVTLDEVGALLDKEPDRLLNIFMDEKVPVRHFINVVDIAKVKREGRFII
The “soluble fraction (log2)” value of the first is lower: -3.1 for the first, -0.453 for the second.

Compared with “HMSIQQEATGNRIRELLLNNGYTVKDIQEVMGFENPQAVYKWLSGKSLPNLDNLLILSKVLHTSIEDILV”, “HMQNNTIAFSKFLQEVDNGRVVQVEIQGNNINGILSDGSKFNTYSPNYPALVEKLSEKNVNIVASPV” is higher in “soluble fraction (log2)” value: -0.699 for the first, 0.0149 for the second.

“HMIQSEQIPFSKFLKEVDSGRVVQVEIQGNNINGVLSDGSKFKTYSPNYPELVGKLSDKGVSIVASPV” and “HMARPLHVDALIHLGTEIGSRVGGAHAGPHLLVAGHSPMSELVYARLLGIPTLGWMRGQLTFVNLSK” are within 0.2 log units of each other in “soluble fraction (log2)” value: 0.106 for the first, 0.155 for the second.

“HMNALTEAESKLLERMNKAGIHAEITTKKAAGILQRSENGARTVLNSLVKKGYLTVETNKAPYIYHLH” and “HMAEEGEQAASNTAAQAEDRAAELAAAGEKGKQITKTLVAEFGIPKNEAYRLALDAVAAVKAER” are within 0.2 log units of each other in “soluble fraction (log2)” value: -0.11 for the first, -0.105 for the second.

“HMSNYFIEISKDSLARINDEIELDVLRETSDTIIISQEEKTNTISSFIKVLFERQIDILSIQNR” and “HMLEDDTVNTAEGIKIGDSFAAVTKAYGTDYVAAGNTYAYSKDKMTLTFVMNNDKVSTISYSLLTS” are within 0.2 log units of each other in “soluble fraction (log2)” value: 0.000151 for the first, -0.129 for the second.

Compared with “HMAPQSAAAILRYLSSGAIRGVGPATAQRIVERFGTDSLEIIQNRPKELAAINGISINKALSISEEYAKQY”, “HMKMVSTPTGTRISLTQVKEFISNASFDDMKEILLEVLAWFKAHNLGNPFNYNRAFEFIVAH” is higher in “soluble fraction (log2)” value: -0.831 for the first, 0.102 for the second.

Going from “HMAYLTVPAVIAKDTKKSIQLLESKGFEVVIQDSIYTDTLARGTVIKQLPDPNATVKINRTVYLTVNRYTP” to “HMNVPYEMVTQNGEVFYKYKVQPGEGVFAVSRTFSVSVAEILRVNPEANKGLKNGQVLLIPVPKDMIA”, the “soluble fraction (log2)” value rises from -2.1 to 0.0163.

First: HMIENPGQTFERIAGKITRTLRTGPLRIQQLDLLFSESGEQVMDVLRAMAENGEILIKDDTIQWNGHN
Second: HMRGQGRILAMLKIQPEIATKDLAYLLGIRQQSLNELLKKLEKNSYVERRPSEKDRRVMVVHLTEKGKE
The “soluble fraction (log2)” value of the first is higher: -0.0388 for the first, -0.715 for the second.

Compared with “HMRMLLEERLDEIVKIVNERGSISNQELVKMFGASESTIRRDITTLANDNRVIRVHGGAMSVVS”, “HMTTQVPYTAKLININGGSVVNFRKEPGMNTTIIRTYPVGTEVTVLETGVNWSKVEIDGVTGYVSSYFL” is lower in “soluble fraction (log2)” value: -0.0564 for the first, -0.699 for the second.

“HMDAKIKDYADAYAKMDPQQAASLFNNMTTGSLDLVAKILENIPANKRAAILEKMDVNAAAQVTEKMR” and “HMQNKRQEQLLALLAERRDYMTSRQLAEILQVSDRTIRSDVEAINRRSSPPPIESNVRQGYRLNPEA” are within 0.2 log units of each other in “soluble fraction (log2)” value: 0.117 for the first, 0.0852 for the second.

“HMGAWQQTGFFRNRENAESLAEVLRQRGFSPVVREDTRPSGTVYYAVLVPDDGTTAARLKDAGIDSYPV” and “HMPAYYQKEAVLDGRASVFAYERDPSSWYFKQLIPGTKKYRTKKIQGATTLEQAKSQALDIALGLRDEP” are within 0.2 log units of each other in “soluble fraction (log2)” value: 0.0695 for the first, 0.0201 for the second.

Going from “HMTDAELDLLTPREQEVLQLIARGYLYKEIARRLGISVKTVEAHASSVLRKLQLSTRHELSHWAAQRH” to “HMDKVVGSAGDVTSRITANSGEVKIDGQIWQARSYDETIAIEAGEKIEVFDLDGITLIVYPI”, the “soluble fraction (log2)” value falls from -0.258 to -0.604.

First: HMGNKDIEILFSEIVEMRNRIIHGFRITSKQGEQILATKTRKKDGNIQFEITKEYLLDFIKKNEELSDMLY
Second: HMLFRGNGFNTLYDKQLRITQQGEFKDGRLWDGKYYRYSKAGELVRIEIYEQGRYAGNGVITDEDKA
The “soluble fraction (log2)” value of the first is lower: -2.23 for the first, -0.845 for the second.

Going from “HMGANSAYMAMRDRIQQRLLAELSPGVTRSDTAEVRRVVERIFNETTAELGLPLSRLERNDIFDLVLADIL” to “HMLQVRRILQLLADGYSKRQISQQTAVSRNTIDSYEDRFHLTGKSYQELLSMEDGELSGIVYP”, the “soluble fraction (log2)” value rises from -0.792 to -0.424.

“HMDDLATAYKAMGVDASISDKDLKRAYRKLMSQHHPDKMIAKGVPADMVAMATEKTQEIQAAYDLIERSR” and “HMAEKAVELTENEKAIQTILSNGALEIGELKTKLELSGKQWDVALKGLAKHGITQVSKVEGVVTVGL” are within 0.2 log units of each other in “soluble fraction (log2)” value: 0.127 for the first, 0.136 for the second.

Compared with “HMGKDLLGYEVFAESGDLVGILKDVMWLPHSDVYVITKGGKEFLIPVIPEVVKGINHEQGVIVISPMEGLL”, “HMGAEWTEMRVWTSTSGSKVTAEASSLTNGQVTLETKSGKRITLSIRKLVEADQKFLEAHFSK” is lower in “soluble fraction (log2)” value: -0.0165 for the first, -0.947 for the second.

Going from “HMYVKIAADAAMPYTIKRVVTDYSSAALDAAYDGSLPKWLTISSSTKDAGSGLYRHEIIYTVTAHPE” to “HMLAEEDRRRAERPGLDGNAVMVHLGIGPGRHVGEALAFLLEVRRSEGDLAVAELKSRIDAWWADR”, the “soluble fraction (log2)” value falls from -0.68 to -2.59.

Going from “HMTAYENSIPLNWVIQKGDAKGLPLSANTARLLIDIVGIDLMDLDHELEKISLYLSGESITEEMIKEHIRG” to “HMVSKIEAPLPGIILSVDVKEGDTVKAGDKLMVMEAMKMENAILAETNGVVKSIKVKIQDSVLQGDILAEI”, the “soluble fraction (log2)” value rises from -0.668 to -0.171.

Compared with “HMRSISVEMDGKEYLIPTVSENGKVLSDDDAVKQFKKTGKHLDVFDSPEDATAYARQLHEDQESFYA”, “HMEDFDLSDTERKIIAQIGHGYSNKEIAQKLGFSEGTIRNYLSVILDKLDLRDRTQLAIWYLSR” is lower in “soluble fraction (log2)” value: 0.142 for the first, -0.143 for the second.

First: HMALTARDLGLTHRQADVLHLVLQGKPVKLIARDLGLAEGTVKSHVSAVLRALNVTTRTQAIVAAGRLGLM
Second: HMSSTSISFNDFQKYWLSNDIKSFQLREDKMTVQGSLKNGTAYETVVPSERLFQFIGQHPKD
The “soluble fraction (log2)” value of the first is lower: -1.92 for the first, 0.368 for the second.

First: HMVDKSYIHNQQVASDTWTVQHNLGKYPAVSVADTGNNEVYGDVRHINENTVELKFSHPFSGVAFF
Second: HMKTKHISIAEGMSLYTRDRSPFYWGYLNIEGVIHKKSLKTDVVDEAIKLLSIWKNELLNSITK
The “soluble fraction (log2)” value of the first is higher: 0.281 for the first, -1.28 for the second.

Going from “HMADLTIDGVEYTKVSPTGTLTLEKVYTKNVTPADGQYYIQTGTKTVRVATDAEVAVIKAGGF” to “HMRIVSGRESMLGRTVVVADWAGERGHVVVDGERWNAVASTPLAAGRRARIVGIDGLTLSVSPDDKP”, the “soluble fraction (log2)” value rises from 0.0157 to 0.216.

“HMSASSEALKTAVRKVLLNNRMTQDRMARDAGLSGSALSQWLHGKYQGDVPALEGRLAAWLADTQAS” and “HMGNFQNIFRKLRTSSNLTQNAIAEKLGISRSTIGMYETGAREPDFETLEKIADYFNVDTDFLLGRTNQTT” are within 0.2 log units of each other in “soluble fraction (log2)” value: 0.0546 for the first, -0.106 for the second.

Compared with “HMALQDKYKQLVDTATASGVANLQVREQDGVLYIDGEAPSGSVKDQLWDIYGKIDPNFLSGDVVMNINV”, “HMRTKLEEAVEWLQEQLNDGPVLSKELESEAKAADILPGTLRRAGEALGVVKQKQGGRGGWTWSLPR” is higher in “soluble fraction (log2)” value: -0.0683 for the first, 0.14 for the second.

In the case of “HMSKYLAFTVKKNDELLPFIEKALNGISHTKAKAILANGGAMVNKNTITQYNYPLTPGMTVEISRH”, the “soluble fraction (log2)” value is reported as 0.131.
